The text below walks through data of patent US20080025990A1 (Eli Lilly, published 2008).

Test [1] has as its target T1, native human IGF-IR on human tumor cells (human, UniProt P08069 31-1367). The test is described as follows: cell-based or functional assay.
The target of test [2] is T1, native human IGF-IR on human tumor cells. The test can be described thus: cell-based or functional assay. This is another data set of the same source.
The target in test [3] is recombinant extracellular portion of human IGF-IR (soluble IGF-IR) (human) (UniProt P08069). The test is described as follows: comparison of affinities (BIAcore, Table 3). In general terms: In SPR one partner is held on a chip, and binding of the other changes the refractive index at the surface.
Test [4] has as its target T1, native human IGF-IR on human tumor cells. The test is described as follows: cell-based or functional assay. The source holds these as a separate data set.
For test [5] the target is unchanged. The test is described as follows: inhibition of 125I-IGF-I binding to MCF7 (breast) cells. How it is done: (§1) The anti-IGF-IR antibodies were then tested for blocking of radiolabeled ligand to native IGF-IR on human tumor cells. […] MCF7 human breast cancer cells were seeded into 24 well dishes, and cultured overnight. Sub-confluent monolayers were washed 2-3 times in binding buffer (Iscove's Medium/0.1% BSA) and antibody added in binding buffer. […] The wells were then washed three times with ice-cold PBS/0.1% BSA. Monolayers were then lysed with 200 μl 0.5N NaOH and counted in a gamma counter.

Test [6] shares this target. The test is described as follows: inhibition of 125I-IGF-I binding to T47D (breast) cells.
For test [7] the target is unchanged. The test can be described thus: inhibition of 125I-IGF-I binding to 8226 (myeloma) cells.
For test [8] the target is unchanged. The test can be described thus: inhibition of 125I-IGF-I binding to OV90 (ovarian) cells.
The target is the same in test [9]. The test is described as follows: inhibition of 125I-IGF-I binding to HPAC (pancreatic) cells.
Test [10] has the same target. The test is described as follows: inhibition of 125I-IGF-I binding to BXPC3 (pancreatic) cells.
For test [11] the target is unchanged. The test can be described thus: inhibition of 125I-IGF-I binding to HT-29 (colorectal) cells.
Test [12] deals with recombinant extracellular portion of human IGF-IR (soluble IGF-IR) (human) (UniProt P08069). The test can be described thus: inhibition of 125I-IGF-I binding to immobilized IGF-IR, A12 against 2F8.
Test [13] deals with T1, native human IGF-IR on human tumor cells. The test is described as follows: inhibition of 125I-IGF-I binding to SK-ES1 (Ewing sarcoma) cells.
Test [14] has the same target. The test can be described thus: inhibition of 125I-IGF-I binding to MCF7 cells (the 3 nM is written at Table 4). How it is done: as §1
In test [15] the target is recombinant extracellular portion of human IGF-IR (soluble IGF-IR) (human) (UniProt P08069). The test can be described thus: inhibition of 125I-IGF-I binding to immobilized human IGF-IR, full IgG; 'Blocking (EC50)'.
Test [16] has the same target. The test can be described thus: human IGF-IR ELISA, full IgG; column head 'Binding (ED50)', concentration for 50% binding relative to saturation.
The target is the same in test [17]. The test can be described thus: BIAcore binding kinetic analysis.
Test [18] deals with T1, native human IGF-IR on human tumor cells. The test is described as follows: inhibition of 125I-IGF-I binding to MCF7 cells. How it is done:
as §1

Test [19] deals with recombinant extracellular portion of human IGF-IR (soluble IGF-IR) (human) (UniProt P08069). The test is described as follows: BIAcore 3000, soluble IGF-IR immobilized on the chip, full IgG.
Test [20] shares this target. The test can be described thus: inhibition of 125I-IGF-I binding to immobilized human IGF-IR, full IgG; 'Blocking (EC50)'; lower end of the printed range 3-6 nM.
The target is the same in test [21]. The test is described as follows: inhibition of 125I-IGF-I binding to immobilized human IGF-IR, full IgG; 'Blocking (EC50)'; upper end of the printed range 3-6 nM.

Values joined by “and” are separate entries in the source; they are usually repeats but may differ in a detail not shown here. Equal entries are not always repeated. Bounds are passed on as bounds.

B1: antibody A12, full length human IgG1 with lambda light chain (antibody, V domains shown)
VH: EVQLVQSGAEVKKPGSSVKVSCKASGGTFSSYAISWVRQAPGQGLEWMGGIIPIFGTANYAQKFQGRVTITADKSTSTAYMELSSLRSEDTAVYYCARAPLRFLEWSTQDHYYYYYMDVWGKGTTVTVSS
VL: SSELTQDPAVSVALGQTVRITCQGDSLRSYYATWYQQKPGQAPILVIYGENKRPSGIPDRFSGSSSGNTASLTITGAQAEDEADYYCKSRDGSGQHLVFGGGTKLTVLG
notes: also called IMC-A12; mAb A12
What is called IC50 is the concentration that inhibits the measured activity by half. By EC50 is commonly meant the midpoint of the concentration-response curve. For the molecule B1, in test [1], the “reduction in IGF-IR surface staining of MCF7 cells after 4 h with 50 nM A12 at 37 C (FACS, mean fluorescence intensity ratio)” value was determined as 90%. The “IC50 of inhibition of IGF-I-stimulated [3H]thymidine incorporation (mitogenesis), MCF7 breast” value in [2] came out at 6 nM. The “IC50 of inhibition of mitogenesis, 8226 myeloma” value in test [2] worked out at 5 nM. Also, the “IC50 of inhibition of mitogenesis, BT474 breast” value in test [2] was found to be 5 nM. Further, in test [2], the “IC50 of inhibition of mitogenesis, BXPC3 pancreatic” value was determined as 2 nM. Further, the “IC50 of inhibition of mitogenesis, HT-29 colorectal” value in test [2] was found to be 6 nM. In addition, the “IC50 of inhibition of mitogenesis, SK-ES1 Ewing sarcoma” value in test [2] came to 10 nM. In addition, the “IC50 of inhibition of mitogenesis, T47D breast” value in [2] was found to be 7 nM. Moreover, in test [3], the fold higher affinity relative to 2F8 stood at 10 fold. Further, in [4], the “surface IGF-IR staining of MCF7 cells (mean fluorescence intensity ratio) after 4 hours with A12; untreated cells 35.7, control 1” value was 3.3. Moreover, the IC50 in test [5] is 3 nM; in test [6] it was 6 nM; in test [7], 20 nM; in [8] it was 6 nM; in test [9], 10 nM; in test [10], 20 nM. For the same molecule, the IC50 in [11] was 10 nM; in [13], 2 nM; in [14] it was 0.45 µg/mL; in test [15], 0.6 to 1 nM. For the same molecule, in test [12], the fold increase in blocking activity relative to 2F8 is more than 3 fold. Moreover, the EC50 in [16] turned out to be 0.3 nM.

B2: antibody 2F8, full length human IgG1 with lambda light chain (antibody, V domains shown)
VH: EVQLVQSGAEVKKPGSSVKVSCKASGGTFSSYAISWVRQAPGQGLEWMGGIIPIFGTANYAQKFQGRVTITADKSTSTAYMELSSLRSEDTAVYYCARAPLRFLEWSTQDHYYYYYMDVWGKGTTVTVSS
VL: SSELTQDPAVSVALGQTVRITCQGDSLRSYYASWYQQKPGQAPVLVIYGKNNRPSGIPDRFSGSSSGNTASLTITGAQAEDEADYYCNSRDNSDNRLIFGGGTKLTVLS
notes: Tested as full IgG1 (human gamma 1 constant region) with full-length lambda light chain; also called IMC-2F8; 2F8 IgG
The Kd is the concentration at which binding is half-saturated. As to B2, the Kd in test [17] is 0.5 to 1 nM; in test [19], 0.65 nM. Also, the IC50 is 30 nM and 4.5 µg/mL in test [18]; more than 3 nM in test [20]; less than 6 nM in test [21]. The EC50 in [16] was determined as 2 nM.
